Positions count from the first letter of the chain named.
B1: H2L3: humanized PIIO-1 antibody, VH SEQ ID NO: 21 and VL SEQ ID NO: 22 (antibody, V domains shown)
VH: QVQLQESGPGLVKPSQTLSLTCTVSGYSITSDYAWNWIRQFPGNKLEWMGYISYSGSTSYTPSLKSRITISRDTSKNHFFLKLSSVTAADTAVYYCAKSGGDYYGSSSYWYFDVWGQGTMVTVSS
VL: DIVLTQSPSSLAVSAGERVTMSCKSSQSLLNSRSQKNYLAWYQQKPGQPPKLLIYGASTRGSGVPDRFSGSGSGTDFTLTISSVQAEDVAVYYCQNDHSYPFTFGSGTKLEIKR
B2: H3L1: humanized PIIO-1 antibody, VH SEQ ID NO: 19 and VL SEQ ID NO: 23 (antibody, V domains shown)
VH: B1 VH with Q1D, V93T, M120T
VL: B1 VL with A15L, V19A, S22N, V84L, S106Q
B3: H4L3: humanized PIIO-1 antibody, VH SEQ ID NO: 18 and VL SEQ ID NO: 22 (antibody, V domains shown)
VH: B1 VH with Q1D, K82Q, A89E, V93T, M120T
VL: B1 VL
B4: H3L2: humanized PIIO-1 antibody, VH SEQ ID NO: 19 and VL SEQ ID NO: 24 (antibody, V domains shown)
VH: B1 VH with Q1D, V93T, M120T
VL: B1 VL with A15L, S22N, S106Q
B5: H1L3: humanized PIIO-1 antibody, VH SEQ ID NO: 20 and VL SEQ ID NO: 22 (antibody, V domains shown)
VH: B1 VH with I68V, F80S
VL: B1 VL
B6: H4L1: humanized PIIO-1 antibody, VH SEQ ID NO: 18 and VL SEQ ID NO: 23 (antibody, V domains shown)
VH: B1 VH with Q1D, K82Q, A89E, V93T, M120T
VL: B1 VL with A15L, V19A, S22N, V84L, S106Q
B7: H3L3: humanized PIIO-1 antibody, VH SEQ ID NO: 19 and VL SEQ ID NO: 22 (antibody, V domains shown)
VH: B1 VH with Q1D, V93T, M120T
VL: B1 VL
B8: H4L2: humanized PIIO-1 antibody, VH SEQ ID NO: 18 and VL SEQ ID NO: 24 (antibody, V domains shown)
VH: B1 VH with Q1D, K82Q, A89E, V93T, M120T
VL: B1 VL with A15L, S22N, S106Q
B9: H2L2: humanized PIIO-1 antibody, VH SEQ ID NO: 21 and VL SEQ ID NO: 24 (antibody, V domains shown)
VH: B1 VH
VL: B1 VL with A15L, S22N, S106Q

Each molecule was assayed on Ag(−) cell (assay: FACS analysis with Ag(−) cell (non-specific binding)). Settings: Heating, 5 ug/ml.
Description: Methods—FACS analysis. Cell preparation: Cell were harvested and washed with PBS+2% FBS for one time. Cell density was adjusted to 1.5E6/mL in PBS/2% FBS. Cell were added to 96 U-bottom well plates at 100 μL/well. Antibody samples preparation: Antibody in supernatant was adjusted to 10 μg/mL using PBS+2% FBS, with serial 5 times dilution performed to obtain 3 concentrations of antibody solution. The blank was PBS+2% FBS. Antibody solutions were placed into 96 U-bottom well plates at 100 μL/well in the same arranging pattern as the cell preparation. Incubation: The antibody samples (100 μl) were mixed with the cells (100 μl), and incubated at RT for 1 h, then centrifuged the plate for 3 min at 1000 rpm (swing bucket). The supernatant was pipetted and the cells were washed with PBS+2% FBS for one time. Incubation with the secondary antibody: Cy3-Conjugated AffiniPure Goat Anti-Human IgG was diluted 250× by PBS+2% FBS, and added to the 96 U-bottom well plate with 100 μl/well, then incubated at RT for 30 min. After that, the plate was centrifuged at 1000 rpm for 3 min and the supernatant was pipetted out. The cell was washed with PBS+2% FBS twice. Cells were re-suspended in 200 μl PBS+2% FBS and analyzed on FACS. The MFI of total live cells were used as binding signal.
Methods—heat treatment. Culture supernatant was serial diluted to the indicated concentration of IgG with cell media and heated at 70° C. for 5 mins on a PCR machine, then quickly cooled down to room temperature.

First: B1
Second: B2
The “FACS with Ag(−) cell (MFI)” value of the first is lower: 3.35 for the first, 3.4 for the second.

First: B3
Second: B4
The “FACS with Ag(−) cell (MFI)” value of the first is higher: 3.36 for the first, 3.26 for the second.

Compared with B5, B6 is lower in “FACS with Ag(−) cell (MFI)” value: 3.33 for the first, 3.25 for the second.

B7 and B8 are the same in “FACS with Ag(−) cell (MFI)” value: 3.29 for the first, 3.29 for the second.

Same assay, conditions: Non-Heating, 5 ug/ml

Compared with B1, B2 is higher in “FACS with Ag(−) cell (MFI)” value: 3.18 for the first, 3.28 for the second.

First: B3
Second: B9
The “FACS with Ag(−) cell (MFI)” value of the first is higher: 3.27 for the first, 3.24 for the second.

Going from B4 to B5, the “FACS with Ag(−) cell (MFI)” value falls from 3.37 to 3.22.

First: B6
Second: B7
The “FACS with Ag(−) cell (MFI)” value of the first is lower: 3.11 for the first, 3.16 for the second.

In the case of B8, the “FACS with Ag(−) cell (MFI)” value is reported as 3.26.

From patent publication US20240425571A1, “GLYCOPROTEIN A REPETITIONS PREDOMINANT (GARP)-BINDING ANTIBODIES AND USES THEREOF” (OHIO STATE INNOVATION FOUNDATION, priority 2021, published 2024)
